Laboratory results reported in the nanobody polyreactivity screen of Harvey et al. (2022).

assay: yeast display, Sf9 membrane polyspecificity reagent, FACS + sequencing; frameworks hold sequencing errors
In short: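 A synthetic nanobody library was expressed on Saccharomyces cerevisiae BJ5465 by galactose induction for 36–48 hours. The library was stained for 1 hour at 4 °C with 10% biotinylated, detergent-solubilized Sf9 membrane reagent and enriched with streptavidin microbeads before FACS. Low and high (top ~1%) gates were set on anti-HA fluorescence for expression and streptavidin fluorescence for reagent binding, and each polyreactivity label reflects the gate of origin.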

Sequence	polyreactivity (PSR sort gate)
QVQLVESGGGLVQAGGSLRLSCAASGRIFNPNAMGWYRQAHGKESELVAAISGSGGSTYYADSVKGRFTISRDNAKNTVNLQMNSLKPEDTAVYYCNKLLSQRRYHSEMDYWGQGTQVTVSS	high polyreactivity
QVQLVESGGGLVQAGGSLRLSCAASGRIFNTYAMGWYRQAPGKERELVAAISWRGVSTYYADSVKGRFTISRDNAKNTVYLQMNSLKAEDTAVYYCAALPFWWGGYWGQGTQVTVSS	high polyreactivity
QVQLVESGGGLVQAGGSLRLSCAASGRIFNTYAMGWYRQAPGKERELVARITWSAGRTYYADSVKGRFTISRDNAKNTVYLQMNSLKPEDTAVYYCAAEGFYRSSPVRTYIGYDYWGQGTQVTVSS	high polyreactivity
QVQLVESGGGLVQAGGSLRLSCAASGRIFNYNAMGWYRQAPGKERELVAVITSGDSTNYADSVKGRFTISRDNAKNTVYLQMNSLKPEDTEVYYCAAEYYSIRYGPHSIEVYGMDYWGQGTQVTVSS	low polyreactivity
QVQLVESGGGLVQAGGSLRLSCAASGRIFNYYAMGWYRQAPGKARELVAAISGSGGRTYYADSVKGRFTISRDNAKNTVYLQMNSLKPEDTAVYYCAADGVDGYDYWGQGTQVTVSS	high polyreactivity
QVQLVESGGGLVQAGGSLRLSCAASGRIFNYYAMGWYRQAPGKERELVAGISGSGTSTYYADSVKGRFTISRDNAKNTVYLQMNSLKPEDTAVYYCAADVFRDDVWLDYWGQGTQVTVSS	low polyreactivity
QVQLVESGGGLVQAGGSLRLSCAASGRIFNYYAMGWYRQAPGKERELVATISRNGGRTYYADSVKGRFTISRDNAKNTVYLQMNSLKPEDTAVYYCATDGLYRYDYWGQGTQVTVSS	high polyreactivity
QVQLVESGGGLVQAGGSLRLSCAASGRIFNYYAMGWYRQATGKERELVARIDASGDSTYYADSVKGRFTISRDNAKNTVYLQMNSLKPEDTAVYYCNKDYLYSYLWGWKVYSYDYWGQGTQVTVSS	low polyreactivity
QVQLVESGGGLVQAGGSLRLSCAASGRIFPANAMGWYRQAPWKERELVAAISSTGGSTYYADSVKGRFTISRDNAKNSVYLQMKSLKPEDTAVYYCAKVHYRWPRVTWPNVWWSFEYWGQGTQVSVSS	low polyreactivity
QVQLVESGGGLVQAGGSLRLSCAASGRIFPAYAMGWYRQAPGKERELVAAISWTGTSTYYADSVKGRFTISRDNAKNTVYLQMNSLKPEDTAVYYCAARSYRLRSAYNYWGQGTQVTVSS	high polyreactivity
QVQLVESGGGLVQAGGSLRLSCAASGRIFPDNAMGWYRQAPGKERELVASITSGASTNYADSVKGRFTISRDNAKNTVFLQMNSLKPEDTAVYYCAAGYSYYDDYDYWGQGTQVTVSS	high polyreactivity
QVQLVESGGGLVQAGGSLRLSCAASGRIFPDNAMGWYRQARGKERELVAAMTYSGGSTSYADSVKGRFTISRDNAKNTVYLQMNSLKPEDTAVYYCNKGGGTSYDYVRVDKYPGDYWGQGTQVTVSS	low polyreactivity
QVQLVESGGGLVQAGGSLRLSCAASGRIFPENAMGWYRQAPGKERELVAAINNNDGDTYYADSVKGRFTISRDNAKNTVYLQMNSLKPEDTAVYYCAADEAYWLSYVWGIGYDYWGQGTQVTVSS	low polyreactivity
QVQLVESGGGLVQAGGSLRLSCAASGRIFPEYAMGWYRQAPGKERELVAAITSSGRTYYADSVKGRFTISRDNAKNTVYLQMNSLKPEDTAVYYCAASFRRYYRWDYGFWGQGTQVTVSS	high polyreactivity
QVQLVESGGGLVQAGGSLRLSCAASGRIFPGKAMGWYRQAPGKEREFVASINWSRGSTFYADSVKGRFTISRDNAKNTVYLQMNRLIPEDTAVYYCSARTFGYYRSRSYNYWGQGTQVTVSS	high polyreactivity
QVQLVESGGGLVQAGGSLRLSCAASGRIFPGYAMGWYRQAPGKERELVASISSGGRTYYADSVKGRFTISRDNAKNTVYLQMNSLIPEDTAVYYCNSRHSSYSFRYDYWGQGTQVTVSS	low polyreactivity

Sequence	polyreactivity (PSR sort gate)
QVQLVESGGGLVQAGGSLRLSCAASGRIFPGYTMGWYRQAPGKERELVAGISRSGGRTYYADSVKGRFTISRDNAKNTVYLQMNSLKPEDTAVYYCADDGYPGRRYTGMDYWGQGTQVTVSS	high polyreactivity
QVQLVESGGGLVQAGGSLRLSCAASGRIFPHYSMGWYRQAPGKERELVAANSWSGSSTYYADSVKGRFTISRDNAMNTVYLQMNSLKPEDTAVYYCNAVRRGIGYDYGYWGQGTQVTVSS	high polyreactivity
QVQLVESGGGLVQAGGSLRLSCAASGRIFPKYAMGWYSQAPGKERELVAGITKRVGSTYYADSVKGRFTISRDNAKNTVYLQMNSLKPDDTAVYYCAADYRYLIDYLDPEKEGMDYWGQGTQVTVSS	low polyreactivity
QVQLVESGGGLVQAGGSLRLSCAASGRIFPLYAMGWYRKAPGKERELVAAISYSGGSTYYADSVKGRFTISRDNAKNTVYLQMISLKPEDTSVYYCAAQTARVSYRMGYWGQGTQVTVSS	high polyreactivity
QVQLVESGGGLVQAGGSLRLSCAASGRIFPLYAMGWYRQAPGKERELVAAITWRAGITYYADSVKGRFTISRDNAKNTVYLQMNSLKPEDTAVYYCAARFVRGRGFAYGYWGQGTQVTVSS	high polyreactivity
QVQLVESGGGLVQAGGSLRLSCAASGRIFPLYAMGWYRQAPGKERELVARITYSGGSTYYADSVKGRFTISRDNAKNTVYLQMNSLKPEDTAVYYCAKDTYGRSTRNGYWGQGTQVTVSS	low polyreactivity
QVQLVESGGGLVQAGGSLRLSCAASGRIFPPYDMGWYRQAPGKETELVAAISYRGGSTYYADSVKGRFTISRDNAKNTVYLQMNSLKPEVTAVYYCNVGSRGGWDASDYDYWGQCTQVTVSS	high polyreactivity
QVQLVESGGGLVQAGGSLRLSCAASGRIFPRNAMGWYRQAPGKERELVAAISSGGGSTYYADSVKGRFTISRDNAKNTVYLQMNSLKPEDTAVYYCAKRAGWAGWYYRNDYWGQGTQVTVSS	high polyreactivity
QVQLVESGGGLVQAGGSLRLSCAASGRIFPRNAMGWYRQAPGKERELVASITSGGSTNYADSVKGRFTNSRDNAKNTVYLQMNSLKPEDTAVYSCAALYRQVTSPYRYYYWGQGTQVTVSS	high polyreactivity
QVQLVESGGGLVQAGGSLRLSCAASGRIFPRNTMGWYRQAPGKERELVAAISQSGGRTYYADSVKGRFTISRDYAKNTVYLQMNSLKPEDTAVYYCAAREYRYDMYYWGQGTQVTVSS	high polyreactivity
QVQLVESGGGLVQAGGSLRLSCAASGRIFPRYAMGWYRQAPGKERELVARITRRGGITYYADSVKGRFTISRDNAKNSVYLQMNSLKPEDTAVYYCNVDYYRGGDFSYGYDYWGQGTQVTVSS	high polyreactivity
QVQLVESGGGLVQAGGSLRLSCAASGRIFPRYAMGWYRQAPGKERELVARITRRGGITYYADSVKGRFTISRDNAKNTVYLQRNSLIPEDTAVYYCNVDYYSGGEFSYGYDYWGQGTQVTVSS	high polyreactivity
QVQLVESGGGLVQAGGSLRLSCAASGRIFPRYAMGWYRQAPGKERELVASISGTGSRTYYADSVKGRFTISRDNAKNTVYLQMNSLKPEDTAVYYCAAYSFRKLDYYWGQGTQVTVSS	high polyreactivity
QVQLVESGGGLVQAGGSLRLSCAASGRIFPTYTMGWYRQAPGKERELVAAIRRGGGRTYYADSVKGRFTISRDNAKNTVYLQMNSLKPEDTAVYYCAAPFYRQSLIEYDYWGQGTQVTVSS	high polyreactivity
QVQLVESGGGLVQAGGSLRLSCAASGRIFPTYTMGWYRQAPGKERELVAAIRRGGGRTYYADSVKGRFTISRDNAKNTVYLQMNSLKPEDTAVYYCNKDVYGYSRTGPRGYDYWGQGTQVTVSS	high polyreactivity
